Results: patent US20030017568A1, “Smooth muscle myosin phosphatase associated kinase” (priority 2001, published 2003)

Test system: permealized rabbit longitudinal ileum smooth muscle strips
Experiment: Force in permeabilized rabbit longitudinal ileum smooth muscle strips (Ca2+-sensitization)
Experimental: Instead, when rN-ZIP^1-320 kinase is added a 40% increase in muscular force is produced at the same submaximal calcium concentration.

B1: rN-ZIP^1-320 kinase: recombinant 38 kDa GST-fusion protein of the N-terminal region (1-320) of ZIP kinase, expressed in E. coli, constitutively active (protein, UniProt O43293 1-320, looked up, fragment)
chain: MSTFRQEDVEDHYEMGEELGSGQFAIVRKCRQKGTGKEYAAKFIKKRRLSSSRRGVSREEIEREVNILREIRHPNIITLHDIFENKTDVVLILELVSGGELFDFLAEKESLTEDEATQFLKQILDGVHYLHSKRIAHFDLKPENIMLLDKNVPNPRIKLIDFGIAHKIEAGNEFKNIFGTPEFVAPEIVNYEPLGLEADMWSIGVITYILLSGASPFLGETKQETLTNISAVNYDFDEEYFSNTSELAKDFIRRLLVKDPKRRMTIAQSLEHSWIKAIRRRNVRGEDSGRKPERRRLKTTRLKEYTIKSHSSLPPNNSYA
modifications: GST fusion
Question: Which results are given for B1?
Answer: Increase in muscular force (at the same submaximal calcium concentration): 40%; Contraction in the absence of calcium (permeabilized ileum strips, no calcium): does not cause contraction
